This data set concerns the molecule itself. The data set is described as follows: seeded fibril assembly followed by ThT fluorescence.

One protein from paper PMC4546571 (Chemistry & biology, 2015) can be followed below.

With GIHKQKEKSRLQGGVLVNEILNHMKRATQIPSYKKLIMY (peptide, UniProt P15309 248-286, looked up) [PAP248-286], the binding result is on record as “binds”.
